# Experiment: yeast display, Sf9 membrane polyspecificity reagent, FACS + sequencing; frameworks hold sequencing errors
# Summary of the method: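 In a synthetic yeast display library (Saccharomyces cerevisiae BJ5465), nanobody expression was induced with galactose for 36–48 hours. FACS gates were set low and high (top ~1%) using anti-HA fluorescence for expression and streptavidin fluorescence for binding of the Sf9 membrane reagent. Each polyreactivity label is drawn from the gate of origin.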
row,Sequence,polyreactivity (PSR sort gate)
1,QVQLVESGGGLVQVGGSLRLSCAASGSILTDYGMGWNRPAPGKERELVAVIDFSSGSTYYADSVKGRFTISRDNAKNTVYLQMNSLKPEDTAVYYCAAGPDPLGEDYWGQGTQVTVSS,low polyreactivity
2,QVQLVESGGGLVRAGGSLRLSCAASGSTFGENAMGWYRQAPGKERELVAAISDSGGDTYYADSVKGRFTISRDNAKNTVYLQMNSLKPEDTAVYYCAADRYGYWYAYYSWGQGTQVTVSS,low polyreactivity
3,QVQLVESGGGLVRAGGSLRLSCAASGSTFRQYAMGWYRQAPGKERDLVAAINWSGSSTYYADSVKGRFTISRDNAKNTVYLQMNSLKPEATAVYYCAARRVLATFQHSNSHYYWGQGTQVTVSS,high polyreactivity
4,QVQLVESGGGLYQAGGSLRLSCAASGRIFYCYAMGSYRQAPGKERELVAAISWRGGRTYYADSVKGRFTISRDNAKNTVYLQMNSLIPEDTAVYYCNTDFPPQGQLRNMSYWGQGTQVTVSS,high polyreactivity
5,QVQLVESGGGSVQAGGRLRLSCAASGSIFGQYAMGWYRQAPGKERELVAAISDTDSTNYADSVKGRFTISRDNAKNTVYLQMNSLKPEDTAVYYCNADTWGYRLGYYYYKFDYWGQGTQVTVSS,low polyreactivity
6,QVQLVESGGGSVQAGGSLRISCAASGSIFSLYAMGWYRQAPGKERELVASISSDGSTYYADSVKGRFTISRDNAKNTVYLQMNSLKPEDTAVNYCATAVYSRYSPYAGYYYWGQGTQVTVSS,low polyreactivity
7,QVQLVESGGGSVQAGGSLRLCCAASGRILESYAMGWYRQAPGKERELVAAINSGASTYYADSVKGRFTISRDNAKNTVYLPMNSLKPEDTAVYYCAADYRYGAYDDWGQGTQVTVSS,low polyreactivity
8,QVQLVESGGGSVQAGGSLRLSCAASGIIFWYYTMGWYRQATGKERELVAAISWSSGITYYADSLKGRFTISRDNAKNTVYLQMNSLKPEDTAVYYCSAGYYKGFTLVRVIFDYWGQGTQVTVSS,low polyreactivity
9,QVQLVESGGGSVQAGGSLRLSCAASGITSYGYAMGWYRQAPGKERDLVASISRTGGNTYADSVKGRFTISRDNAKNTVYLQMNSLKPEDTAVYYCNAGRSWDYWYGYDYWGQGTQVTVSS,low polyreactivity
10,QVQLVESGGGSVQAGGSLRLSCAASGRTFVRYAMGWYRQAPGKERELVAAITWSGGSTYYADSVKGRFTISRDNAKNTVYLQMNSLKPEDTAVFNCADYPVQWGSLYDYWGQGTQVTVSS,high polyreactivity
11,QVQLVESGGGSVQAGGSLRLSCAASGSTIRYYAMGWYRQAPGKERELVARITSRAGRTYYADSVKGRFTISRDNAKNTVYLQMNSLKPEDTAVYYCNTRDFSGYVHALSLYDYWGQGTQVTVSS,high polyreactivity
12,QVQLVESGGGSVQAGGSLRLSCAASGYIFGVYAMGWYRQAPGKERELVAAISSGGSTNYADSVKGRFTISRDNAKNTVYLQMNSLKPEDTAVYYCNADYIFYYEYDYWGQGTQVTVSS,low polyreactivity
13,QVQLVESGGGVGQAGGSLRLSCAASGLSCVDYAMGWYRQAPGKERELVAAISTTGGSTYYADSVKGRFTISRDNAKNTVYLQMKSLKPEDTAVYYCNARFVHHSWGTNYYWGQGTQVTVSS,high polyreactivity
14,QVQLVESGGGVVQAGGSLRFSCAASGSIFPGYAMGWYRQAPGKEREMVATITWSGGTTYYADSVKGRFTISRDYAKNTVYFQMNSLKPEDTAVYYCNATFGYPFLDYDDYWGQGTQVNVSS,low polyreactivity
15,QVQLVESGGGVVQAGGSLRISCAASRLIFRRNAMGWYGQAPGKERELVAAISRTGGSTYDADSVKGRFTISRDNAKNPVYLQRNSLIPEDTAVYYCATDTRDYDYTDEYWGHGTQVTVSS,low polyreactivity
16,QVQLVESGGGVVQAGGSLRLSCAASGFIFSYNVMVWYRQAPGKERELVAAISSSGGSTYYADSVKGRFTISRDNAKNTAYLQMNSLKPEDTAVYYCATRVSRSFRAYDYWGQGTQVTVSS,high polyreactivity
17,QVQLVESGGGVVQAGGSLRLSCAASGFIYRWNAMGLNRQAPGKERELVAAMSARGGSTYDADSVKGRFTIARDNAKNTVYLPMNSLKPEDTAVYYCARAKRVHTEYDYWGQGTQVTVSS,high polyreactivity
18,QVQLVESGGGVVQAGGSLRLSCAASGITFNGNAMGWYRQAPGKERELVATISRSDGRTYYADSVKGRFTISRDNAKNTDYFQMNSLKPEDTAVYYCAAYTTRPYWGQGTQVTVSS,high polyreactivity
19,QVQLVESGGGVVQAGGSLRLSCAASGLIFRRYAMGWYRQAPGIERELVAAISGNGGSTYYADSVKGRFTISRDKAKNTVYVQMNCLKPEDTAVYYCAARSLGIYNYWGQGTQVTVSS,high polyreactivity
20,QVQLVESGGGVVQAGGSLRLSCAASGRICAYYTMGWYRQAPGKERELVAAINQSGGSTYYADSVKGRFTISRDNAKYTEYLQMNSLKPEDTAVFYCAAQPTIYSTPHPEYNYWGQGTQVNVSS,low polyreactivity
21,QVQLVESGGGVVQAGGSLRLSCAASGRIFARYTMGWYRQAPGKEREFVAGIRSSGGRTYYADSVKGRFTISRDTAKNTVYLQMNSLKPEDSAVYYCNAGGSWYFARYDYWGEGTQVTVSS,low polyreactivity
22,QVQLVESGGGVVQAGGSLRLSCAASGRIFVYYMGWYRQAPGKERVLVAAISVGGGSTYYADSVKGRFTISRDHAKNTVYLQMNSLKPEDTAVYYCAAAWSNYFGDPSYYWGQGTQVTVSS,low polyreactivity

row,Sequence,polyreactivity (PSR sort gate)
1,QVQLVESGGGVVQAGGSLRLSCAASGRIFYYNARGWYRQAPGKERELVAVISRNGGRTYYADSVKGRFTISRDNAKITVYLQMNSLKPEDTAVYYCAARSAGDRYDYWGQGTQVTVSS,high polyreactivity
2,QVQLVESGGGVVQAGGSLRLSCAASGRINARYAMGWYRQAPGKERELVAAITSGGGTYYADSVKGRFTISRDNAKNTVYLQMNSLKPEDTAVYYCAARWLSRGYEYYYWGQGTQVTVSS,high polyreactivity
3,QVQLVESGGGVVQAGGSLRLSCAASGRTFKPYAMGWYRQAPGKERELVAAISSGVSTHYADSVKGRFTISRDNAKNTVYLQMNSLKPEDTAVYYCAADYWVNYWFDYWGQGTQVTVSS,low polyreactivity
4,QVQLVESGGGVVQAGGSLRLSCAASGRTFMVNAMGWYRQAPGKERELVAAISQRGGSTDYADSVKGRFTISRDNAKNTVYLQMNSLIPEDTAVYYCAADSLRGSAPTYYSTLEYWGQGTQVTVSS,low polyreactivity
5,QVQLVESGGGVVQAGGSLRLSCAASGRTFSYNALGWNRQAPGKEREVVAAINGDGGSTYYADSVKGRFTSSRDNAKNTVYLQMNSLKPEDTAVYYCNRRGIYRYGYWGQGTEVTVSS,high polyreactivity
6,QVQLVESGGGVVQAGGSLRLSCAASGSIFLYIYAKGWYRHAPGKERELVATINWDGGSTYYADSVKGRFTISRDNAKNTVYLQMNSLKPEDTAVYYCAADWYYSYYFYRFDYWGQGTQVTVSS,low polyreactivity
7,QVQLVESGGGVVQAGGSLRLSCAASGSIFYVYSMGWYRQAPGKERELVAAISRSGTNTYYADSVKGRFTISRDNAKNTVYLQMNSLKPEDTAVYYCNADAAYLVTQPYDDNYDYWGQGTQVTVSS,low polyreactivity
8,QVQLVESGGGVVQAGGSLRLSCAASGSIVYSYAMGWYRQAPGKERELVARIRWGGGRTYYADSVKGHFAISRDNAKNTVYLQMNSLKPEDTAVYYCAASYVYPASFHYYYWGQGTQVTVSS,high polyreactivity
9,QVQLVESGGGVVQAGGSLRLSCAASGSTFDVYAMGWYRPAPGKERELVAAITSGGTTNYADSVKGRFTISRDNAQNTVYLQLNSLKPEDTAVYYCAADSPWGGGYFVLYNYWGQGTQVTVSS,low polyreactivity
10,QVQLVESGGGVVQAGGSLRLSCAASGSTFRTNAMGWYRQAPGKERELVAAITSTGGSTYYADSVKGRFTISRDNAKNTVYLQMNSLKPEDTAVYYCAAYYVPGYYYWGQGTQVTVSS,high polyreactivity
11,QVQLVESGGGVVQAGGSLRLSCAASGSTFRYNARGWYRQAPGKEREFVAAITTSGVRTYYADSVKGRFTISRDNAKNTVYLQMNSLKPEDTAVYYCARRTPGTRWNYDYWGQGTQVTVSS,high polyreactivity
12,QVQLVESGGGVVQAGGSLRLSCAASGSTFYPYAMGWYRPAPVKERELVASISSRGGTTYYADSEKGRFTISRDNAKNTVYLQRNSLKPEDTAVYYCAATYKHLNPLGVFSGGYYYWGQGTQVTVSS,high polyreactivity
13,QVQLVESGGGVVQAGGSLRLSCAASGSTLSYYAMGLYIQAPGTERELVAAITSGVSTNYADSVKGRFTISRDNAKNTVYFQMNSLKPEDTAVYYCAKAYGGYHDDYDYWGQVTQVTVSS,low polyreactivity
14,QVQLVESGGGVVQAGGSLRLSCAASGYIYLVYAMGWYRQATGKETELVAAISSGGSTYYADSVKGRFTISRDNAKNTVYLQMNSLKPEDTSVYYCATAGLALYAFRDDYWGQGTQVTVSS,low polyreactivity
15,QVQLVESGGGVVQAGGSLRLSCAATGSTFWWYAMGWYRQAPGKERELVADITTGGSTNYADSVKGRFTISRDNAKNTVYLQMNSLKPEDTAVYYCNADGVTPYTWRLRYFKYHFDYWGQGTQVTVSW,low polyreactivity
16,QVQLVESGGGVVQAGGSLRLSCDASGSTFDTYAMGWYRQAPGKERELVAGNTRRGGRTYYADSVKGRFTISRDNAKNTVYVQMNSLKPEDSAVYYCNALPQRPVGKRDHWGQGTQVTVSS,high polyreactivity
17,QVQLVESGGGVVQAGGSLRLSGAASGTLDGNAMGWYRPAPGKERELVAAISRCGGRTYYADSVKGRFTISRDNAKNTVYLQMNSQKPEDTAVYYCNTVSKPGYAYNYWGQGTQVTVSS,high polyreactivity
18,QVQLVESGGGVVQAGGSLRLSSAASGISFAYYAMGWYRQAPGKERELVASITNTGSTYYADSVKGRFTISRDNAKNSVYLEMTSLKPEDTAVYYCNAVLSSNTKWRYPGDDWGQGTQVTVSS,low polyreactivity
19,QVQLVESGGGVVQAGGSLRLSSAASGYIFRAYAMGWYRQAPGKERELVAAISSRGGSTYFADSVKGRFTISRDNAKNTVYLQMNSLKPEDTAVYYCAAAYRQPYIGYGYWGQGTQVTVSS,high polyreactivity
20,QVQLVESGGGVVQAGGSLRLSWAASGFIFAVYAMGWYRQSTGKERELVAAITFDGDTTYYADSVKGRFTISRDNANNTVYLQMKILKPDTAVYYCAAEYIKYLWYLHVDYWGQGTQVTVSS,low polyreactivity
21,QVQLVESGGGVVQAGGSLRLTCAASGFTFARYATGWYRQAPGKERELVAAITYSGGRTYYADSVKGRFTISRDNAKNTVYLHMNSLKPEDTAVYYCAARQYGPRYTYYYWGQGTQVTVSS,high polyreactivity
